Experimental data: paper doi:10.1101/2023.08.15.553463

Molecular target: actin filaments (F-actin) polymerised from chicken skeletal muscle actin (chicken) (UniProt P68139)
Experiment: TIRF microscopy (gliding filament assay); unpatterned PEG-silane coverslips with 50 nM myosin-5; 1 μM phalloidin-labelled F-actin pre-incubated with 1, 2, 5 or 10 nM CPC for 15 min at room temperature; imaging buffer with 2 mM ATP and calmodulin; about 25°C

capping protein complex (CPC): two CapZAB capping protein heterodimers covalently attached through a linker complex (from UniProt P47753 1-286; P47757-2 1-272)
median time to rupture of paired filament complexes under myosin-5 tension: 26 to 29 s
